Two molecules from US10456465B2, “Compositions, kits, and methods for the diagnosis prognosis, monitoring, treatment and modulation of post-transplant lymphoproliferative disorders and hypoxia associated angiogenesis disorders using galectin-1” (Dana-Farber Cancer Institute, Inc., priority 2009, dated 2019) can be followed below.

Test [1] has as its system HUVEC. The test can be described thus: HUVEC invasion (BioCoat Angiogenesis system). The class given is cell-based, human. The following applies: HUVEC treated with Gal1. The procedure: HUVEC transfected or not with specific siRNA or pre-incubated with signaling pathway inhibitors were exposed to VEGF or Gal1 with or without lactose, sucrose, 8F4F8G7 mAb or control isotype (IgG1κ) or specific antibodies for VEGFR1 (AP-MAB0702; Abcam), VEGFR2 (AF357; R&D), VEGFR3 (AB89501; Abcam) or VEGF (MAB293; R&D). Cells were processed for proliferation, migration, invasion and tube formation assays. Tumor-associated blood vessels were identified by flow cytometry using Alexa Fluor 647-conjugated anti-CD34 antibody (RAM34; eBioscience).
Invasion assays were performed using the BioCoat Angiogenesis system (BD Biosciences) following manufacturer's recommendations. For assessment of in vivo angiogenesis, growth factor-reduced Matrigel (BD Biosciences) was mixed with Gal1 (0.1 or 3 μM) with or without lactose (30 mM). In another set of experiments, serum-free CM from KS cells infected or not with a retroviral vector expressing Gal1 shRNA and cultured under hypoxic or normoxic conditions, were added to unpolymerized Matrigel and injected subcutaneously into the flanks of either wild-type or Lgals1^−/− (B6) mice or nude mice using a cold syringe. Matrigel embedded with buffer alone was used as negative control and a cocktail containing VEGF (50 ng/ml), heparin (50 U/ml) and TNF (2 ng/ml) was used as positive control. […]

Test [2] relates to growth factor receptor tyrosine kinases (RTKs) and signaling nodes. Description: Phospho-RTK signaling array of HUVEC. The class given is cell-based, human. The following applies: HUVEC exposed to Gal1. Here is the method:
Cells were lysed and analyzed by the human PathScan® RTK Signaling Antibody
Array (Cell Signaling) following manufacturer's directions. For co-immunoprecipitation, 500 μg cell lysates were incubated with 2 μg of anti-VEGFR2 (55B11; Cell Signaling) or anti-NRP-1 (C-19; Santa Cruz Biotechnol) antibodies. The immunocomplexes were captured with protein G PLUS-Agarose (Santa Cruz Biotechnol) and processed for immunoblot analysis as described in Ilarregui et al. (2009) Nat Immunol 10, 981-991. Equal amounts of protein were resolved by SDS-PAGE, blotted onto nitrocellulose membranes (GE Healthcare) and probed with anti-IκB-α (C21), anti-Erk1/2 (C14), anti-phospho-Erk1/2 (E4) or anti-actin (I-19) (all from Santa Cruz Biotechnol) or anti-Akt (9272), anti-phospho-Akt (9271S), anti-VEGFR2 (55B11), anti-phospho-VEGFR2 (19A10) (all from Cell Signaling) or anti-HIF-1α (mgc3; ABR BioReagent) antibodies or a rabbit anti-Gal1 IgG (1.5 μg/ml) obtained as described in Ilarregui et al. (2009) Nat Immunol 10, 981-991.

Test [3] relates to B16 tumors. Description: Adoptive transfer of CFSE-labeled T cells or fluorescent beads into B16 tumor-bearing mice. The class given is in vivo, mouse. Here is the method:
Wild-type KS cells or shRNA clones (5×10^6 cells) were injected subcutaneously into 6- to 8-week old nude mice. Wild-type B16 cells or shRNA clones (2×10^5 cells) were injected into 6- to 8-week old B6 or B6/Rag^−/− mice and tumor development was monitored as described in Rubinstein et al. (2004) Cancer Cell 5, 241-251. Treatments with 8F4F8G7 mAb or control isotype (2.5, 7.5 or 15 mg/kg; i.p. injections every three days) were initiated when tumors reached 100 mm^3. Mice were sacrificed when tumors reached a volume greater than 2 cm^3. At 2 weeks after tumor challenge, lymph node cells (5×10^5 cells/well) were restimulated for 72 h with 1×10^4 irradiated (4,000 rads) B16 cells and were analyzed for proliferation and cytokine production. For adoptive transfer, splenic T cells (5×10^6) from tumor-bearing mice were labeled with CFSE (Molecular Probes) and injected through the tail vein into tumor-bearing recipient mice treated with 8F4F8G7 or control mAb. In related studies, fluorescent beads (3 μm; BD Biosciences), rather than splenic T cells, were injected into tumor-bearing animals treated with 8F4F8G7 or control antibody. CFSE^+ cells or PerCP-labeled beads were analyzed after 24 h or 15 min respectively by flow cytometry in tumor parenchyma and spleen.

Test [4] addresses T1, human galectin-1 (Gal1) (human, UniProt P09382 2-135).
T1 construct: Used as recombinant protein (rGal1); also called hGal1; rGal1
Description: immunoblot of L428 cell lysate.

T1 sequence (P09382 2-135 limits assumed): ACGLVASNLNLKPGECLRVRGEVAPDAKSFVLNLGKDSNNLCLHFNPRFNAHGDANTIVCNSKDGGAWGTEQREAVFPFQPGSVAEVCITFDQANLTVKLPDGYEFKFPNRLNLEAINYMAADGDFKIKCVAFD

With rGal1: recombinant human galectin-1, the EC invasion result in test [1] is recorded as “elicited”. Further, in test [2], the “phosphorylation of Akt (Thr308), Akt (Ser473) and Erk1/2” value is listed as “increased”. Besides, the “phosphorylation of VEGFR2” value in test [2] (as early as 15 min) is “became phosphorylated”.

B1: anti-Gal1 monoclonal antibody 8F4F8G7 (antibody, V domains shown)
VH: EVQLQQSVAEFVRPGASVRLSCTASGFNIKNTYIHWVRQRPEQGLEWIGKIDPANGNTKYVPEFQGKATMTADTSSNTVYLHLSSLTSEDTAIYYCVDGYYGWYFAVWGTGTTVTVSS
VL: QAVVTQESALTTSPGETVTLTCRSSTGAVTTSNYANWVQEKPDHLFTGLIGATNNRAPGVPARFSGSLIGDKAVLTITGAQTEDEAIYFCALWYRNHFIFGSGTKVTVL
notes: Murine hybridoma mAb (deposit PTA-10535), lambda light chain; also called 14-19 8F4-F8-G7; clone 8F4.8F.67
Consider B1, for which, in test [3] (CFSE-labeled T cells, vs control isotype), the “T cells reaching tumor parenchyma (increase)” value is given as 3 fold. Besides, in test [3] (recipient mice), the “number of CFSE+ T cells in spleens” value is “no differences”. Further, the “access of fluorescently-labeled beads to the tumor parenchyma” value in test [3] (vs isotype-treated mice, 15 min) is “increased access”. In addition, in test [4], the binding result is listed as “binds”.
